{
  "source": "patent US20080193973A1",
  "about": "“Bacillus Subtilis Strain and its Use in Preparing Pharmaceuticals for Treating Thrombosis” (CHENGDU DI'AO JIUHONG PHARMACEUTICAL, priority 2005, published 2008)",
  "molecules": {"B1": {"name": "nattokinase of the invention: fibrinolysin produced by Bacillus subtilis Diao 1502; crude drug, luteous water-soluble powder, batch No. 20040617 (protein, UniProt P35835 107-381, looked up)", "Subtilisin NAT": "AQSVPYGISQIKAPALHSQGYTGSNVKVAVIDSGIDSSHPDLNVRGGASFVPSETNPYQDGSSHGTHVAGTIAALNNSIGVLGVAPSASLYAVKVLDSTGSGQYSWIINGIEWAISNNMDVINMSLGGPTGSTALKTVVDKAVSSGIVVAAAAGNEGSSGSTSTVGYPAKYPSTIAVGAVNSSNQRASFSSVGSELDVMAPGVSIQSTLPGGTYGAYNGTSMATPHVAGAAALILSKHPTWTNAQVRDRLESTATYLGNSFYYGKGLINVQAAAQ"}, "B2": {"name": "Nattokinase (NK): serine protease extracted from the traditional Japanese food Natto, 275 amino acids (background literature) (protein, UniProt P35835 107-381, looked up)", "Subtilisin NAT": "B1 Subtilisin NAT"}},
  "key": {"[1]": {"system": "carotid artery thrombosis in rats", "assay": "carotid artery thrombosis test in rats (direct current stimulation, thrombus formation time)", "assay_type": "in vivo, SD rats", "description": "Experimental Apparatus: Experimental Intracorporeal Thrombosis Surveyor BT87-3, developed by the cardiovascular research department of Baotou Medical University of China.\nThe carotid artery of test rats were separated 1 hour after the last intragastric administration or 15 minutes after intravenous injection according to the method prescribed in existing literature. Being stimulated continually with direct current (2 mA) for 7 minutes, the injuries of endarterium of carotid artery formed thrombosis gradually in test rats. The experimental apparatus would give an automatic alarm and record the time of thrombus formation when the blood vessels were blocked."}, "[2]": {"assay": "weight and overt toxicity of test rats during 7 days of administration", "procedure": "Experimental Animal: 84 male SD rats weighing 250 to 320 g, purchased from the Animal Center of Henan Medical University of China.\nEighty-four male SD rats were randomly assigned to seven experimental groups (12 rats each group) according to their body weight. The freeze-dried powder of nattokinase and positive drug aspirin were given to test groups and the control group was administered with 5% NaHCO3, by intragastric administration according to the dosage of 0.5 ml/100 g each day for 7 continuous days. The positive drug staphylokinase was given at the 7th day by intravenous injection."}, "[3]": {"assay": "enzyme (nattokinase) activity of fermentation broth or dried crude product", "assay_type": "biochemical", "excerpt": "Although many kinds of fermentation techniques have been reported in existing literatures related to nattokinase from Bacillus subtilis, but the majority of the publicized strains have lower enzyme producing ability. On the other hand, other literatures describes some fermentation products from Bacillus subtilis that have higher enzyme producing ability, but it is difficult to evaluate the abilities of these publicized enzymes for the uncertainties of measuring conditions. The strain of Bacillus subtilis of the invention was fermented under the condition of temperature 30 to 40 degree C. and with the speed of 180 to 220 rpm for shaking bed, and the peak of enzyme production was obtained next day with enzyme activity of 1600 IU/ml and could be increased to 1697 IU/ml under optimized conditions. The enzyme activity of dried crude product could reach to 5000-10000 IU/g in solid fermentation of 10 kg supplies. […] Therefore, it has a very high industrial application value. So we think that the strain of Bacillus subtilis (No. Diao 1502) is a newly developed, different one in comparison with any Bacillus subtilis producing nattokinase reported in existing literatures."}, "[4]": {"conditions": "temperature below 56 degree C. for 30 10 minutes; cited from earlier work"}, "mice": {"system": "mice", "assay": "acute toxicity test by intragastric administration in mice", "assay_type": "in vivo"}, "[5]": {"assay": "preliminary test of activity of nattokinase prepared by 5% NaHCO3 at room temperature", "assay_type": "physicochemical", "conditions": "prepared by 5% NaHCO3, room temperature for 4 days", "excerpt": "Basis of Preparation: It has been reported that the nattokinase-like drugs are stable at pH values from 6.0 to 12.0 and unstable when to the PH value is below 5.0. Generally, the pH values of digestive tract are ranged from 0.9 to 1.5 in stomach, 6.0 to 6.8 in small intestine and 6.5 to 7.5 in colon. Therefore, the direct intragastric administration of drug containing nattokinase prepared with common solution adjuvant is unstable and easy to breakdown."}, "[6]": {"conditions": "in vivo, po; cited from earlier work"}},
  "note": "Marks after values point to notes of the source that are not given here.",
  "data": [
    {"molecule": "CC(=O)Oc1ccccc1C(=O)O", "note": "[Aspirin]", "values": [
      {"measurement": "Thrombus formation time, mean value", "setting": "[1]; aspirin 40 mg/kg/day intragastric for 7 days, 1 hour after last administration", "result": "1379** second"},
      {"measurement": "Weight of test rats after 7 days of administration", "setting": "[2]; aspirin 40 mg/kg/day intragastric", "result": "316 ± 20"},
      {"measurement": "Weight of test rats before administration", "setting": "[2]; aspirin group (40 mg/kg/day intragastric)", "result": "296 ± 15"}
    ]},
    {"molecule": "B1", "values": [
      {"measurement": "Enzyme activity of fermentation broth", "setting": "[3]; after optimization of fermentation condition", "result": 1697, "unit": "IU/ml"},
      {"measurement": "Enzyme activity of fermentation broth", "setting": "[3]; liquid fermentation, before optimization", "result": 1600, "unit": "IU/ml"},
      {"measurement": "Enzyme activity of dried crude product", "setting": "[3]; solid fermentation of 10 kg class, after drying", "result": "5000-10000 IU/g"},
      {"measurement": "Activity after incubation (in words)", "setting": "[4]", "result": "basically unchanged"},
      {"measurement": "LD50", "setting": "mice", "result": "higher than 6.0 g/kg"},
      {"measurement": "Carotid artery thrombosis time compared with positive Aspirin (in words)", "setting": "[1]; groups of different dosages", "result": "no significant difference"},
      {"measurement": "Thrombus formation time, mean value", "setting": "[1]; high dosage 100 mg/kg in 5% NaHCO3, intragastric for 7 days", "result": "1309** second"},
      {"measurement": "Effect on carotid artery thrombosis time compared with negative control (in words)", "setting": "[1]; listed as NK prepared by 5% NaHCO3", "result": "apparent antithrombotic effects"},
      {"measurement": "Effect on carotid artery thrombosis time compared with negative control (in words)", "setting": "[1]; listed as freeze dried powder of nattokinase", "result": "prolonged significantly"},
      {"measurement": "Thrombus formation time, mean value", "setting": "[1]; low dosage 4 mg/kg in 5% NaHCO3, intragastric for 7 days", "result": "1237* second"},
      {"measurement": "Thrombus formation time, mean value", "setting": "[1]; middle dosage 20 mg/kg in 5% NaHCO3, intragastric for 7 days", "result": "1287* second"},
      {"measurement": "Activity after storage (in words)", "setting": "[5]", "result": "no decrease in activity"},
      {"measurement": "Toxicity in rats (in words)", "setting": "[2]; 7-day's intragastric administration, prepared with 5% NaHCO3", "result": "no apparent toxicity"}
    ]},
    {"molecule": "B2", "values": [
      {"measurement": "Time of peak value of fibrinolytic activity after taking the medicine", "setting": "[6]", "result": 4, "unit": "h"},
      {"measurement": "Time till which certain activity was maintained", "setting": "[6]", "result": 8, "unit": "h"}
    ]}
  ]
}
